The values that follow come from the supplement of paper PMC9112550, “Optimization of the antimicrobial peptide Bac7 by deep mutational scanning” (BMC Biology, 2022).

This series has as its system Escherichia coli TOP10. Briefly: shrunken log2 fold change of peptide-encoding DNA abundance (4.5 h post-induction vs induction); higher = less antimicrobial activity (less host growth inhibition). As to conditions: time post-induction: 4.5 h; library: site-saturation at positions 5, 18, 19, 20.
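Note: peptides expressed intracellularly from a pBAD plasmid library in pooled LB shake-flask culture, induced with 0.3% L-arabinose, DNA abundance read by NGS, three biological replicates, DESeq2 with apeglm shrinkage.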

On to RRIRPRPPRLPRPRPRPRGDPRP, for which the “shrunken log2 fold change” value is 1.81.
As for RRIRYRPPRLPRPRPRPLNIPRP, the figure is -1.1; as for RRIRCRPPRLPRPRPRPWPRPRP, 0.398.
Take RRIRQRPPRLPRPRPRPTYIPRP: the “shrunken log2 fold change” value was -0.0622.
For RRIRRRPPRLPRPRPRPDNDPRP the value was 0.104.
On to RRIRNRPPRLPRPRPRPAQAPRP, for which the “shrunken log2 fold change” value was -0.0253.
For RRIRWRPPRLPRPRPRPSMLPRP the value was -0.369.
For RRIRRRPPRLPRPRPRPQIIPRP the value was -0.0755; for RRIRIRPPRLPRPRPRPHNIPRP, -0.424.
For RRIRRRPPRLPRPRPRPTPCPRP the value was 0.774.
For RRIRYRPPRLPRPRPRPVDEPRP, the “shrunken log2 fold change” value was -0.554.
For RRIRERPPRLPRPRPRPVSLPRP the value was -0.013.
As for RRIRPRPPRLPRPRPRPDPHPRP, the figure is 0.0782.
For RRIRTRPPRLPRPRPRPRRQPRP the value was -0.0389.
Take RRIRWRPPRLPRPRPRPTMMPRP: the “shrunken log2 fold change” value was found to be 0.113.
For RRIRKRPPRLPRPRPRPFTRPRP the value was 0.0464; for RRIRVRPPRLPRPRPRPKMMPRP, -0.313; for RRIRPRPPRLPRPRPRPYLLPRP, -1.57.
For RRIRKRPPRLPRPRPRPLYTPRP the value was -0.288; for RRIRWRPPRLPRPRPRPKDYPRP, 0.0778; for RRIRYRPPRLPRPRPRPHSKPRP, -0.463.
For RRIRYRPPRLPRPRPRPPFLPRP the value was -0.178.
Turning to RRIRFRPPRLPRPRPRPNRRPRP, the “shrunken log2 fold change” value worked out at 0.048.
As for RRIRTRPPRLPRPRPRPFMDPRP, the figure is 0.108; as for RRIRPRPPRLPRPRPRPYCEPRP, -0.337.
For RRIRFRPPRLPRPRPRPFHPPRP the value was 0.039.
For RRIRKRPPRLPRPRPRPECIPRP the value was 0.0177.
RRIRKRPPRLPRPRPRPWTLPRP: the “shrunken log2 fold change” value is 0.00115.
Regarding RRIRLRPPRLPRPRPRPAAPPRP, the “shrunken log2 fold change” value is 0.545.
As for RRIRFRPPRLPRPRPRPDNRPRP, the figure is -0.0149; as for RRIRQRPPRLPRPRPRPIQCPRP, 0.0238.
For RRIRKRPPRLPRPRPRPCWGPRP the value was 0.0634.
Consider RRIRMRPPRLPRPRPRPVMMPRP, for which the “shrunken log2 fold change” value amounted to 0.147.
As to RRIRTRPPRLPRPRPRPMYRPRP, the “shrunken log2 fold change” value is -0.0591.
Turning to RRIRYRPPRLPRPRPRPSLTPRP, the “shrunken log2 fold change” value is -0.628.
As for RRIRNRPPRLPRPRPRPWYYPRP, the “shrunken log2 fold change” value is -0.122.
As for RRIRSRPPRLPRPRPRPFDMPRP, the figure is 0.394; as for RRIRMRPPRLPRPRPRPTIKPRP, 0.0703; as for RRIRGRPPRLPRPRPRPQHTPRP, 0.588.
For RRIRDRPPRLPRPRPRPPNLPRP the value was -0.172.
As for RRIRWRPPRLPRPRPRPKEWPRP, the figure is 0.00353.
For the sequence RRIRLRPPRLPRPRPRPEQIPRP, the “shrunken log2 fold change” value is -0.0478.
As for RRIRNRPPRLPRPRPRPPIRPRP, the figure is 0.0511; as for RRIRSRPPRLPRPRPRPVMPPRP, -0.103; as for RRIRWRPPRLPRPRPRPHMVPRP, -0.069.
As for RRIRVRPPRLPRPRPRPGKKPRP, the figure is 0.0628.
For RRIRNRPPRLPRPRPRPHPGPRP the value was -0.0788.
As to RRIRTRPPRLPRPRPRPIGWPRP, the “shrunken log2 fold change” value came out at 0.6.
As for RRIRWRPPRLPRPRPRPSHHPRP, the figure is -0.3.
As for RRIRNRPPRLPRPRPRPNQCPRP, the figure is -0.136.
For the sequence RRIRVRPPRLPRPRPRPWWSPRP, the “shrunken log2 fold change” value came out at 0.0392.
For RRIRDRPPRLPRPRPRPYIWPRP, the “shrunken log2 fold change” value was -0.373.
As for RRIRDRPPRLPRPRPRPKEQPRP, the figure is 0.0816; as for RRIRWRPPRLPRPRPRPDNKPRP, -0.571.
For RRIRTRPPRLPRPRPRPETAPRP the value was 0.4; for RRIRWRPPRLPRPRPRPDSIPRP, -0.243; for RRIRRRPPRLPRPRPRPKLQPRP, 0.179.
For RRIRYRPPRLPRPRPRPVLDPRP the value was -0.265.
Take RRIRGRPPRLPRPRPRPTWEPRP: the “shrunken log2 fold change” value stood at 0.031.
As to RRIRDRPPRLPRPRPRPQEMPRP, the “shrunken log2 fold change” value is -0.01.
As for RRIRNRPPRLPRPRPRPCKEPRP, the figure is -0.451; as for RRIRQRPPRLPRPRPRPEYAPRP, -0.042; as for RRIRQRPPRLPRPRPRPPDHPRP, -0.27.
As for RRIRLRPPRLPRPRPRPVVHPRP, the figure is 0.93.
For RRIRKRPPRLPRPRPRPQTAPRP the value was 0.385.
In the case of RRIRERPPRLPRPRPRPRWCPRP, the “shrunken log2 fold change” value was 0.0485.
With RRIRKRPPRLPRPRPRPGWFPRP, the “shrunken log2 fold change” value stood at 0.139.
For RRIRFRPPRLPRPRPRPHGIPRP the value was -0.00151; for RRIRQRPPRLPRPRPRPHIEPRP, -0.58; for RRIRSRPPRLPRPRPRPLQRPRP, 0.0641.
As for RRIRPRPPRLPRPRPRPQMIPRP, the figure is -0.594; as for RRIRFRPPRLPRPRPRPFNYPRP, -0.183.
For the sequence RRIRVRPPRLPRPRPRPDRQPRP, the “shrunken log2 fold change” value was -0.215.
For RRIRFRPPRLPRPRPRPMSWPRP the value was 0.131.
As for RRIRCRPPRLPRPRPRPQAYPRP, the figure is 0.0414; as for RRIRDRPPRLPRPRPRPVMWPRP, 0.783.
As for RRIRWRPPRLPRPRPRPATVPRP, the figure is 0.111.
For the sequence RRIRPRPPRLPRPRPRPFKVPRP, the “shrunken log2 fold change” value is -0.0681.
Consider RRIRERPPRLPRPRPRPPIFPRP, for which the “shrunken log2 fold change” value was -0.0515.
For RRIRMRPPRLPRPRPRPIQSPRP the value was 0.00351; for RRIRLRPPRLPRPRPRPDCFPRP, 0.19; for RRIRPRPPRLPRPRPRPTGSPRP, 0.146.
For RRIRNRPPRLPRPRPRPYFEPRP the value was -0.797.
RRIRWRPPRLPRPRPRPPGHPRP: the “shrunken log2 fold change” value came out at 0.403.
For RRIRVRPPRLPRPRPRPEMAPRP the value was 0.311; for RRIRPRPPRLPRPRPRPKCRPRP, 0.00849.
On to RRIRCRPPRLPRPRPRPKCDPRP, for which the “shrunken log2 fold change” value was -0.135.
As for RRIRCRPPRLPRPRPRPPNKPRP, the figure is -0.0142; as for RRIRWRPPRLPRPRPRPKKSPRP, 0.395.
As for RRIRWRPPRLPRPRPRPAWIPRP, the figure is 0.035; as for RRIRVRPPRLPRPRPRPKCLPRP, 0.127; as for RRIRIRPPRLPRPRPRPLWVPRP, 0.0248.
As for RRIRPRPPRLPRPRPRPFYNPRP, the figure is -0.7; as for RRIRNRPPRLPRPRPRPKQVPRP, -0.173.
Take RRIRSRPPRLPRPRPRPNTHPRP: the “shrunken log2 fold change” value was -0.413.
For RRIRERPPRLPRPRPRPVWIPRP the value was -0.556; for RRIRIRPPRLPRPRPRPRWWPRP, 0.655; for RRIRHRPPRLPRPRPRPQTHPRP, -0.143.
For RRIRNRPPRLPRPRPRPCVGPRP the value was -0.129; for RRIRIRPPRLPRPRPRPSSMPRP, -0.432; for RRIRTRPPRLPRPRPRPYLNPRP, -0.484.
For RRIRKRPPRLPRPRPRPGMRPRP the value was 0.926; for RRIRLRPPRLPRPRPRPMPSPRP, -0.0353; for RRIRFRPPRLPRPRPRPRSEPRP, 0.11.
RRIRQRPPRLPRPRPRPLWAPRP: the “shrunken log2 fold change” value stood at 0.00344.
As for RRIRLRPPRLPRPRPRPCLTPRP, the figure is -0.304; as for RRIRWRPPRLPRPRPRPPMLPRP, 0.0923; as for RRIRIRPPRLPRPRPRPTIGPRP, -0.396.
As for RRIRMRPPRLPRPRPRPFMFPRP, the figure is 0.0892.
As for RRIRDRPPRLPRPRPRPIYAPRP, the figure is -0.288.
With RRIRARPPRLPRPRPRPNGKPRP, the “shrunken log2 fold change” value was determined as 0.3.
As for RRIRTRPPRLPRPRPRPHVNPRP, the figure is -0.0758; as for RRIRHRPPRLPRPRPRPQCVPRP, 0.00938; as for RRIRFRPPRLPRPRPRPKVAPRP, 0.192.
As for RRIRSRPPRLPRPRPRPEFAPRP, the figure is 0.413.
For RRIRGRPPRLPRPRPRPLVSPRP the value was 0.355.
On to RRIRMRPPRLPRPRPRPNTEPRP, for which the “shrunken log2 fold change” value was -0.0533.
For RRIRWRPPRLPRPRPRPRSSPRP the value was 0.246.
As for RRIRQRPPRLPRPRPRPRFMPRP, the figure is 0.137; as for RRIRFRPPRLPRPRPRPAQVPRP, -0.0516; as for RRIRWRPPRLPRPRPRPDRLPRP, -0.0216.
As for RRIRDRPPRLPRPRPRPYEDPRP, the figure is 0.0115.
Take RRIRHRPPRLPRPRPRPIIQPRP: the “shrunken log2 fold change” value was -0.348.
As for RRIRGRPPRLPRPRPRPREWPRP, the figure is 0.843; as for RRIRERPPRLPRPRPRPSSCPRP, -0.0232.
